{
  "source": "paper PMC4067516",
  "about": "(Journal of cell science, 2008)",
  "binders": {"B1": {"name": "cannabinoid 1 receptor (receptor, human (endogenous in EA.hy926), UniProt P21554 1-472, looked up)", "chain": "MKSILDGLADTTFRTITTDLLYVGSNDIQYEDIKGDMASKLGYFPQKFPLTSFRGSPFQEKMTAGDNPQLVPADQVNITEFYNKSLSSFKENEENIQCGENFMDIECFMVLNPSQQLAIAVLSLTLGTFTVLENLLVLCVILHSRSLRCRPSYHFIGSLAVADLLGSVIFVYSFIDFHVFHRKDSRNVFLFKLGGVTASFTASVGSLFLTAIDRYISIHRPLAYKRIVTRPKAVVAFCLMWTIAIVIAVLPLLGWNCEKLQSVCSDIFPHIDETYLMFWIGVTSVLLLFIVYAYMYILWKAHSHAVRMIQRGTQKSIIIHTSEDGKVQVTRPDQARMDIRLAKTLVLILVVLIICWGPLLAIMVYDVFGKMNKLIKTVFAFCSMLCLLNSTVNPIIYALRSKDLRHAFRSMFPSCEGTAQPLDNSMGDSDCLHKHANNAASVHRAAESCIKSTVKIAKVTMSVSTDTSAEAL"}},
  "target": "β1 integrin (human (endogenous in EA.hy926), UniProt P05556 21-798)",
  "sequence (P05556 21-798)": "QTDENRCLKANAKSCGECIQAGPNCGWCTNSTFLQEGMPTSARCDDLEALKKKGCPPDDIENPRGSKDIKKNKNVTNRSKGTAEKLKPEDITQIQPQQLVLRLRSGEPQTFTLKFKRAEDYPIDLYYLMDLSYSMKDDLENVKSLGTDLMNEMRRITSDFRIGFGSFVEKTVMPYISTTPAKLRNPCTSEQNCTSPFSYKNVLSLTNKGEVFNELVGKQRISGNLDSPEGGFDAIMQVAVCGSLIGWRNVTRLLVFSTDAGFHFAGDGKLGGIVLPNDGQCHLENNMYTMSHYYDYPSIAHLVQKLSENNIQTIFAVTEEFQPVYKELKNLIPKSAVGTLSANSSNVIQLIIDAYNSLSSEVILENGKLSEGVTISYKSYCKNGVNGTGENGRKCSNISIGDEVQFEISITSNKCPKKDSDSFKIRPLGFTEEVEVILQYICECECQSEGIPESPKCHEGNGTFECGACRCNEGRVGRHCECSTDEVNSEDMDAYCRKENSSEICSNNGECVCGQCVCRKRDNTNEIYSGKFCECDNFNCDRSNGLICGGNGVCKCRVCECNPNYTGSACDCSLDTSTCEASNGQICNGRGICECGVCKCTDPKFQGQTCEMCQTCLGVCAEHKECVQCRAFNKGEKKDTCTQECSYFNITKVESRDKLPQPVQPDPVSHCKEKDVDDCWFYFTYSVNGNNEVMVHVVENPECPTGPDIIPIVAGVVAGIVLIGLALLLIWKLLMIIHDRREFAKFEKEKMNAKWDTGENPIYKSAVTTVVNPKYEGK",
  "test": "co-IP",
  "data": [
    {"binder": "B1", "values": [
      {"measurement": "normalized CB1R ratio without versus with anandamide (2 mM Ca2+)", "value": "1.03 ± 0.04"}
    ]}
  ]
}
